The results in this text go back to article PMC8458385, “Molecular basis for PICS-mediated piRNA biogenesis and cell division” (Nature Communications, 2021).

For series [1], the target named is T1, PICS-1^5-200 (PICS-1^ΔRRM) (C. elegans, UniProt O76616 5-200).
T1 construct: PICS-1 (PID-3), C. elegans, residues 5-200 (lacks the RRM domain); Cloned into pET28-MHL; source: E. coli BL21(DE3), purified (Ni-NTA, TEV cleavage, second Ni-NTA); not shown: His tag (inferred from the Ni-NTA purification), N-terminal, cleaved
T1 sequence (looked up): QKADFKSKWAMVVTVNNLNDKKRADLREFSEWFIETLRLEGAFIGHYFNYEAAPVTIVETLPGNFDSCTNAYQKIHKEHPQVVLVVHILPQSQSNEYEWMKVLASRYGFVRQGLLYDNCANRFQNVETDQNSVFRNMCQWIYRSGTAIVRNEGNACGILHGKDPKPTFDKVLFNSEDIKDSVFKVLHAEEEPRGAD
In words: SEC; ERH-2 and TOFU-6^RRM mixed with PICS-1 5-282, PICS-1 5-200 or PICS-1 ΔEBM; Superose 6 Increase 10/300 GL; 20 mM Tris pH 8.5, 200 mM NaCl; peaks analysed by SDS-PAGE. Particulars: both partners purified. In general terms: SEC sorts molecules by how far they enter the pores of the column.

Series [2] has as its target T2, PICS-1^5-282 (almost full-length PICS-1) (C. elegans, UniProt O76616 5-282).
T2 construct: Cloned into pET28-MHL; Two copies in the 2:2:2 complex with ERH-2 and TOFU-6^RRM; source: E. coli BL21(DE3), purified (Ni-NTA, TEV cleavage, second Ni-NTA); not shown: His tag (inferred from the Ni-NTA purification), N-terminal, cleaved
T2 sequence (looked up): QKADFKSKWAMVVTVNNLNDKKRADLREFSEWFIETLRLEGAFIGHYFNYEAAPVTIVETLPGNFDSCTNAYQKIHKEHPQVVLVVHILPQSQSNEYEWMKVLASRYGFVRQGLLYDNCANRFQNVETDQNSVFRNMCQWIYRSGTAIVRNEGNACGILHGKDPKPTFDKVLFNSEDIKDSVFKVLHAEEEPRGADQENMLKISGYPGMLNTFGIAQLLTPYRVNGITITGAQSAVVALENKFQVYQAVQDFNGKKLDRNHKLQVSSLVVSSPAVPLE
Described as above. Particulars: both partners purified.

In series [3] the target is T3, TOFU-6 RRM domain (TOFU-6^RRM, residues 2-92) (C. elegans, UniProt Q09293 2-92).
T3 construct: TOFU-6, C. elegans, RRM domain, residues 2-92; source: E. coli BL21(DE3), purified (Ni-NTA, TEV cleavage, second Ni-NTA); not shown: His tag (inferred from the Ni-NTA purification), N-terminal, cleaved
T3 sequence (looked up): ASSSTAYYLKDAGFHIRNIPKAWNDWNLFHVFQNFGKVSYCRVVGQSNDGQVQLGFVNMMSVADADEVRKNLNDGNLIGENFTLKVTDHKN
The series can be described thus: ITC; MicroCal ITC200, 25 °C; 20 mM Tris pH 8.5, 200 mM NaCl or 20 mM MES pH 6.5, 200 mM NaCl; 1-2 mM protein or peptide in the syringe titrated into 30-50 μM protein in the cell; one-site model; Kd mean ± SD of a minimum of two experiments. Particulars: both partners purified. On the technique in general: Isothermal titration calorimetry measures the heat released or taken up as one component is titrated into another.

A further series has as its target T4, TOFU-6^RRM D26A/W27A (C. elegans, UniProt Q09293 2-92, D26A | W27A).
T4 construct: TOFU-6, C. elegans, RRM domain, residues 2-92, with D26A and W27A; Cloned into pET28-MHL; also called D26A/W27A(TOFU-6RRM); source: E. coli BL21(DE3), purified (Ni-NTA, TEV cleavage, second Ni-NTA); not shown: His tag (inferred from the Ni-NTA purification), N-terminal, cleaved
T4 sequence (looked up): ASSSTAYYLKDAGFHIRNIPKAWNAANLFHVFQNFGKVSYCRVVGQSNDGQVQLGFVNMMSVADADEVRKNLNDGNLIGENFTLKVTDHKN
The series is described as above. Particulars: both partners purified.

Series [4] concerns the molecule itself. In words: SEC; gel filtration of PICS-1^RRM wild type and F217E alone, HiLoad 16/600 Superdex 75; 20 mM Tris, 200 mM NaCl (pH 8.5 in the methods, pH 7.5 in the legend).
The next series deals with T5, ERH-2 (C. elegans, UniProt Q20057 1-113).
T5 construct: ERH-2, C. elegans, amplified from a cDNA library; also called wild type ERH-2; source: E. coli BL21(DE3), purified (Ni-NTA, TEV, second Ni-NTA); not shown: His tag (from the Ni-NTA purification), N-terminal, cleaved
T5 sequence (looked up): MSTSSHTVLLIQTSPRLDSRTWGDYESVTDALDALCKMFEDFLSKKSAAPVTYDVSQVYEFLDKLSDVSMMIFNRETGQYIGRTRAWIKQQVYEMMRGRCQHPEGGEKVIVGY
The series can be described thus: ITC; MicroCal ITC200, 25 °C, 20 mM Tris pH 8.5, 200 mM NaCl or 20 mM MES pH 6.5, 200 mM NaCl; 1–2 mM in the syringe into 30–50 μM in the cell; one-site binding model. Particulars: both partners purified.

B1: ERH-2 (natural protein, C. elegans, UniProt Q20057 1-113, looked up)
chain: MSTSSHTVLLIQTSPRLDSRTWGDYESVTDALDALCKMFEDFLSKKSAAPVTYDVSQVYEFLDKLSDVSMMIFNRETGQYIGRTRAWIKQQVYEMMRGRCQHPEGGEKVIVGY
notes: ERH-2, C. elegans, amplified from a cDNA library; also called ERH-2 wild type; source: E. coli BL21(DE3), purified (Ni-NTA, TEV cleavage, second Ni-NTA); not shown: His tag (inferred from the Ni-NTA purification), N-terminal, cleaved
Consider B1, for which the binding result in series [1] and in series [2] was “binds” each time.

B2: PICS-1(PID-3) RRM domain (PICS-1^RRM, residues 201-282) (domain or fragment, C. elegans, UniProt O76616 201-282, looked up)
chain: QENMLKISGYPGMLNTFGIAQLLTPYRVNGITITGAQSAVVALENKFQVYQAVQDFNGKKLDRNHKLQVSSLVVSSPAVPLE
notes: Homodimer by gel filtration and in the crystal structure; The methods describe co-expression with TOFU-6^RRM from pETDuet-1 for the complex; the results say that the two domains were purified each for ITC; also called WT; source: E. coli BL21(DE3), purified (Ni-NTA, TEV cleavage, second Ni-NTA, gel filtration); not shown: His tag (inferred from the Ni-NTA purification), N-terminal, cleaved
As a reminder, the stoichiometry N is a count of units in the complex or per binding partner. Broadly, the Kd is the free concentration of one partner at which half of the binding sites on the other are occupied at equilibrium, for simple one-to-one binding. For the molecule B2, the “stoichiometry N” value in series [3] came out at 1.1. Moreover, in the series with TOFU-6^RRM D26A/W27A, binding was put at a Kd of 30 µM and the “stoichiometry N” value is 0.7. For the same molecule, in series [4], the binding result is recorded as “binds”.

B3: PICS-1^RRM K246A/F247A (domain or fragment, C. elegans, UniProt O76616 201-282, looked up)
chain: QENMLKISGYPGMLNTFGIAQLLTPYRVNGITITGAQSAVVALENAAQVYQAVQDFNGKKLDRNHKLQVSSLVVSSPAVPLE
notes: Cloned into pET28-MHL; Some legends and the strain list print K245A/F246A for the transgene; also called K246A/F247A(PICS-1RRM); source: E. coli BL21(DE3), purified (Ni-NTA, TEV cleavage, second Ni-NTA); not shown: His tag (inferred from the Ni-NTA purification), N-terminal, cleaved
Regarding B3, in series [3], binding was characterised by a dissociation constant (Kd) of 17 µM and the “stoichiometry N” value was 1.1.

B4: PICS-1^RRM F217E (domain or fragment, C. elegans, UniProt O76616 201-282, looked up)
chain: QENMLKISGYPGMLNTEGIAQLLTPYRVNGITITGAQSAVVALENKFQVYQAVQDFNGKKLDRNHKLQVSSLVVSSPAVPLE
notes: Cloned into pET28-MHL; also called F217E(PICS-1RRM); source: E. coli BL21(DE3), purified (Ni-NTA, TEV cleavage, second Ni-NTA, gel filtration); not shown: His tag (inferred from the Ni-NTA purification), N-terminal, cleaved
B4: the “stoichiometry N” value in series [3] was found to be 0.7.

B5: PICS-1^RRM Y250A/Q251A (domain or fragment, C. elegans, UniProt O76616 201-282, looked up)
chain: QENMLKISGYPGMLNTFGIAQLLTPYRVNGITITGAQSAVVALENKFQVAAAVQDFNGKKLDRNHKLQVSSLVVSSPAVPLE
notes: Cloned into pET28-MHL; also called Y250A/Q251A(PICS-1RRM); source: E. coli BL21(DE3), purified (Ni-NTA, TEV cleavage, second Ni-NTA); not shown: His tag (inferred from the Ni-NTA purification), N-terminal, cleaved
Consider B5, for which, in series [3], binding was characterised by a dissociation constant (Kd) of 21 µM and the “stoichiometry N” value was 1.2.

B6: SUMO-fused TOST-1^34-54 (domain or fragment, C. elegans, UniProt Q18490 34-54, looked up)
chain: NKRITLNERFGVLEKGYTIQA
notes: TOST-1, C. elegans, residues 34-54; Cloned into pET28-SUMO; also called TOST-1 fragment; source: E. coli BL21(DE3), purified (Ni-NTA); not shown: SUMO, N-terminal, kept
In turn, B6 came in with a Kd with ERH-2 of 3.2 µM.
